Data from PMC9692554.
Substitutions are numbered along the chain they refer to.

How the values were obtained:
Conditions in all cases: EMSA: 20 mM Tris pH 8, 60 mM KCl, 1 mM EDTA, 12% glycerol, 2 mM DTT, 1 ug poly(dI-dC), 12.5 ng (legend: 12.5 nM) Cy5-DNA, +/-5 mM Ca2+, 1% agarose 0.5x TAE …
[1] = target: T1, pMarR (Gp0.7) WT (cyanophage P-SSP7) (UniProt Q58N47); test: EMSA
T1 sequence: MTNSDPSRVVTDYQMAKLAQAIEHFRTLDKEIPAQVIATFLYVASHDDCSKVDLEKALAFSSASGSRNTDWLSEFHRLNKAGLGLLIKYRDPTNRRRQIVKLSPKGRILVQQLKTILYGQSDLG

[2] = target: T2, pMarR S66A S66A (cyanophage P-SSP7) (UniProt Q58N47); test: EMSA
T2 sequence: T1 sequence with S66A

[3] = target: T3, pMarR G106A G106A (cyanophage P-SSP7) (UniProt Q58N47); test: EMSA
T3 sequence: T1 sequence with G106A

[4] = target: T4, pMarR R67A R67A (cyanophage P-SSP7) (UniProt Q58N47); test: EMSA
T4 sequence: T1 sequence with R67A

[5] = target: T1, pMarR (Gp0.7) WT (cyanophage P-SSP7); test: DNase I footprinting

| Sequence | Kd [1] [nM] | binding [2] | binding [3] | binding [4] | binding [5] |
| --- | --- | --- | --- | --- | --- |
| CAGCATCAATACCTGGTAGGACATTTTCAACAGTTCCTAAAAAAATATCCCCGATTTGATATTGACCTTGTGCGACGATTAATTCATCAACTTGATCATCTGTGAGTAGTGCTGCAATACGCGCCTGCTCAGCTATTACAATTTGCTGAGAC (double strand) [rne Pi+] | 320 | binds | binds | no binding | – |
| CAGCATCAATACCTGGTAGGACATTTTCAACAGTTCCTAAAAAAATATCCCCGATTTGATATTGACCTTGTGCGACGATTAATTCATCAACTTGATCATCTGTGAGTAGTGCTGCAATACGCGCCTGCTCAGCTATTACAATTTGCTGAGACATAAAAATTTTAAAGTATGTTTTGAATTTTTGAAAATCGATAAAAAGTAAATAATTACATATTTAATTTTTCGCTAGCAATTTCTTGAAAGC (double strand) [rne footprint fragment (Pi+ and part of Pi)] | – | – | – | – | binds |
